Reference: article doi:10.1101/216143

Target: unmodified R1810 peptide of the RNAP2-CTD (human)
Test: MST

Kd: 220 nM
Substance: recombinant PADI2 (peptidyl arginine deiminase 2) (from UniProt Q9Y2J8 1-665) (enzyme)
